B1: Tom40 (natural protein)
chain: not shown
B2: Tom70 (receptor, UniProt P23231 1-624, looked up)
chain: MAPTIPPPSVPIPAATPVTVPADSSIWDRVSNWVSEHKAVVYTIAGVSVVITTAGVVYYLRKGSEQKESGPKLSKKERRKRKQAEKGEAEKASTSKTEEAAPTQPKAAAVESADELPEIDEESVVRLSEDERKAYAAKLKELGNKAYGSKDFNKAIDLYSKAIICKPDPVYYSNRAACHNALAQWEQVVADTTAALKLDPHYVKALNRRANAYDQLSRYSDALLDFTASCIIDGFRNEQSAQAVERLLKKFAENKAKEILETKPPKLPSSTFVGNYLQSFRSKPRPEGLEDSVELSEETGLGQLQLGLKHLESKTGTGYEEGSAAFKKALDLGELGPHEALAYNLRGTFHCLMGKHEEALADLSKSIELDPAMTQSYIKRASMNLELGHPDKAEEDFNKAIEQNAEDPDIYYHRAQLHFIKGEFAEAAKDYQKSIDLDSDFIFSHIQLGVTQYKMGSIASSMATFRRCMKNFDQTPDVYNYYGELLLDQNKFQEAIEKFDTAIALEKETKPMCMNVLPLINKALALFQWKQDYAEAEQLCEKALIIDPECDIAVATMAQLLLQQGKVVEALKFFERAAELARTEGELVNALSYAEATRTQIQVQENYPELASKLQGMSGGPGMR

Tests used:
[1] = molecular target: the molecule itself; test: 35S-sulfate labelling, SDS-PAGE and phosphorimaging of the purified complex
SDS-PAGE = molecular target: the molecule itself; test: SDS-PAGE

Protein	stoichiometry N [1]	stoichiometry N (SDS-PAGE)
B1	~8 copies of Tom40 in the core complex	–
B2	–	2

Source: PMC2169338 (The Journal of Cell Biology, 1999)
